Experimental data reported in patent publication US20250049939A1, “NOVEL FLT3 ANTIBODIES AND ANTIBODY-DRUG-CONJUGATES BASED THEREON, THERAPEUTIC METHODS AND USES THEREOF IN COMBINATION WITH TYROSINE KINASE INHIBITORS” (TUBULIS GmbH, priority 2021, published 2025).

Biological target: T1, hFLT3/S50P/P54R (Homo sapiens, UniProt P36888, P54R/S50P)
T1 construct: expressed in transfected cells; host or cells: Ba/F3 cells, retrovirally transduced with MSCV-IRES-YFP (pMIY) vector
T1 sequence (P36888 27-993 S50P/P54R): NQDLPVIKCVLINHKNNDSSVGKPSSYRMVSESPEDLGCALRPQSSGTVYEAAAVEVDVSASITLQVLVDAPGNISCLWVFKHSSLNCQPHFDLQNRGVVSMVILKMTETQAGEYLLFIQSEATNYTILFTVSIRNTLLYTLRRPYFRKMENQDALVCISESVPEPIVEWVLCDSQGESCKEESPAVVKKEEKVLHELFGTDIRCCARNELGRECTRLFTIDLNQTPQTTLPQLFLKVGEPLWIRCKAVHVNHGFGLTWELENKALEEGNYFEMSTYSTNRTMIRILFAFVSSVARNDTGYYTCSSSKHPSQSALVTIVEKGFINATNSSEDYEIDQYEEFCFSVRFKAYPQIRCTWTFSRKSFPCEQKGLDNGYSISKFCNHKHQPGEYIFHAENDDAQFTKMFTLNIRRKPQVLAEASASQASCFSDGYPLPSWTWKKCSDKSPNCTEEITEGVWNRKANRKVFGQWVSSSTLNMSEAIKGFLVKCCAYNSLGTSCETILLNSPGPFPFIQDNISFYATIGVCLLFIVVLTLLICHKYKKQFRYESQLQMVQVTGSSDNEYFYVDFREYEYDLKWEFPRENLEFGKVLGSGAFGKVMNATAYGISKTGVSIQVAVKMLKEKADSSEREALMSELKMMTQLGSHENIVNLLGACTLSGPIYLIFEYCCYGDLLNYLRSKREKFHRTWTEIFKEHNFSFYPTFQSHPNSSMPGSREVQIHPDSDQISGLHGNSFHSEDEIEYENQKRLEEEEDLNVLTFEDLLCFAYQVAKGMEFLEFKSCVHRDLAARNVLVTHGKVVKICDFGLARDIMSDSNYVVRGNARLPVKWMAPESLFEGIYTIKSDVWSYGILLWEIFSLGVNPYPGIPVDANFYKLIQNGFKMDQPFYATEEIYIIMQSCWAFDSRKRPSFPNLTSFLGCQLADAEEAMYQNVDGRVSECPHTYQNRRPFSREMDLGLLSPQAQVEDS
Experiment: Cell surface binding to Ba/F3 epitope mutant FLT3, flow cytometry
Text: FIG. 1: Evaluation of epitope specificity and internalization capability of anti-FLT3 monoclonal antibodies. (A) Affinity of seven anti-FLT3 monoclonal antibody (mab) clones to recombinant human FLT3 measured in enzyme-linked immunosorbent assay (ELISA) normalized to the binding of the antibodies to BSA control. […] (B) Schematic FLT3 receptor. Black arrows indicate common mutations and blue arrows indicate the three identified epitopes of seven anti-FLT3 antibodies analyzed in linear epitope mapping by PEPperPRINT. Figure was created with BioRender.com. (C) Binding and temperature induced internalization of anti-FLT3 antibodies in Ba/F3 cells expressing human wildtype FLT3. […] Remaining surface-bound antibody was detected in flow cytometry. […] MFI=mean fluorescence intensity. […] (D) Cell surface binding of 20D9 mab or control human IgG1 antibody to Ba/F3 cells stably expressing pMIY (Ba/F3-pMIY) empty vector (ev), human wildtype (hFLT3 wt) or ITD mutant human FLT3 (hFLT3ITD) was measured in flow cytometry. […] (E) Temperature induced internalization of 4B12 mab in MOLM-13 (FLT3 positive) cells after 30 min incubation at 37° C. compared to 4° C. and HL-60 (FLT3 negative) after 37° C. incubation assessed in immunofluorescence staining. […] (G) Cell surface binding of 20D9 mab or control hIgG1 antibody to Ba/F3-PMIY ev, hFLT3 wt or epitope mutant FLT3 (hFLT3/S50P/P54R) measured in flow cytometry. […]

Binding to human FLT3 with epitope region mutated to murine variant (S50P/P54R): not able to bind
B1: 20D9: chimeric (rat variable regions, human IgG1) anti-FLT3 monoclonal antibody; VH SEQ ID NO: 5, VL SEQ ID NO: 6 (antibody, V domains shown)
VH: DVMLVESGGGLVQPGRSLKLSCVASGFTFNNYWMTWIRQAPGKGLEWIASITKTGGGTYYPDSVKGRFTISRDNAKSTLYLQMNSLRSEDTATYYCTTLQQLGVMDAWGQGASVTVSSA
VL: DVQMTQSPSVLSASVGDRITLNCKASQNINKELNWYQQKLGEAPKLLIYNTNNLQTGIPSRFSGSGSGTDYTLTISSLQPEDVATYFCFQHKSWPLTFGSGTKLEIKR
modifications: Clone 20D9, heavy chain variable region without a signal seqeunce; Clone 20D9, light chain variable region without a signal seqeunce
